# From US20070244048A1 (published 2007)
# Like-named read-outs stand apart in the source and are kept apart here. No end group written: not given here. *: point of attachment. Succinimide(1-Et,3-yl) = CCN1C(=O)CC(*)C1=O
# T1: human NMUR1 (human, UniProt Q9HB89 1-426)
# T1 sequence (looked up): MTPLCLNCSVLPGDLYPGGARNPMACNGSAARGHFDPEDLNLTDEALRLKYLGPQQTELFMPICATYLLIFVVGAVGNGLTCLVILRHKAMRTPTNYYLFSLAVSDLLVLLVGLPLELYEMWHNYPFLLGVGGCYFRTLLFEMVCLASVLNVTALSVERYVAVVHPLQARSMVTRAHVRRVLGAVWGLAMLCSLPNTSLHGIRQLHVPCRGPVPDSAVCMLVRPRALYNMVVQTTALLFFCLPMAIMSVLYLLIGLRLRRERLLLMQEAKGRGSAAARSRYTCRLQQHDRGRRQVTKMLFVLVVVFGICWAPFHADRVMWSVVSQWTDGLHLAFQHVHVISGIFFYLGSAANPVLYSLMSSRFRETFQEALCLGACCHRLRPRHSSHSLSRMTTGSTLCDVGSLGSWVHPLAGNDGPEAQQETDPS
# T2: mouse NMUR1-ATG (mouse, UniProt O55040 1-428)
# T2 sequence (looked up): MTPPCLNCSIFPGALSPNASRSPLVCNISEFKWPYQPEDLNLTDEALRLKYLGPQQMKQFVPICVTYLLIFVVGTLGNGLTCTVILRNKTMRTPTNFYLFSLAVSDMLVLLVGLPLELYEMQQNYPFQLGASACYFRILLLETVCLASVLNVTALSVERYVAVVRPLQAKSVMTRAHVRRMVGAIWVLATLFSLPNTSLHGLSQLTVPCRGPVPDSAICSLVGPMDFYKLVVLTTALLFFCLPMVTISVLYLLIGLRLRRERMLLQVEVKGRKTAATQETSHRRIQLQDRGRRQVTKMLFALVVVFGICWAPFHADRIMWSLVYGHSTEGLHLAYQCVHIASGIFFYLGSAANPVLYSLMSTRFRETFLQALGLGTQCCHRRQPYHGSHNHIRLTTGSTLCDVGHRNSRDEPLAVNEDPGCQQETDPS
# T3: mouse NMUR1-CTG (mouse, UniProt O55040 1-428)
# T3 sequence (looked up): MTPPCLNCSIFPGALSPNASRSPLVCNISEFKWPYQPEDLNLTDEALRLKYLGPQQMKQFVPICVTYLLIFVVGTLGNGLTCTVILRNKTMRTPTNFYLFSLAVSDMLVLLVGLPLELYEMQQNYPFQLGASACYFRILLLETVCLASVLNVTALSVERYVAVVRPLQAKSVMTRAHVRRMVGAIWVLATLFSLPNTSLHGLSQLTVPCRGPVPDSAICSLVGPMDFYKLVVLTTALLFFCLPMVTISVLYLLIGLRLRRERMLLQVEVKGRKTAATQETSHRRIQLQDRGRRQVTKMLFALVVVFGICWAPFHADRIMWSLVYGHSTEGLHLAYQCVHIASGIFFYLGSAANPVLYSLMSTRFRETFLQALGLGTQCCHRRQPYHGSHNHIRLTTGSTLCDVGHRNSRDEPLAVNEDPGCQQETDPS
# T4: rat NMUR1-ATG (rat, UniProt Q9JJI5 1-425)
# T4 sequence (looked up): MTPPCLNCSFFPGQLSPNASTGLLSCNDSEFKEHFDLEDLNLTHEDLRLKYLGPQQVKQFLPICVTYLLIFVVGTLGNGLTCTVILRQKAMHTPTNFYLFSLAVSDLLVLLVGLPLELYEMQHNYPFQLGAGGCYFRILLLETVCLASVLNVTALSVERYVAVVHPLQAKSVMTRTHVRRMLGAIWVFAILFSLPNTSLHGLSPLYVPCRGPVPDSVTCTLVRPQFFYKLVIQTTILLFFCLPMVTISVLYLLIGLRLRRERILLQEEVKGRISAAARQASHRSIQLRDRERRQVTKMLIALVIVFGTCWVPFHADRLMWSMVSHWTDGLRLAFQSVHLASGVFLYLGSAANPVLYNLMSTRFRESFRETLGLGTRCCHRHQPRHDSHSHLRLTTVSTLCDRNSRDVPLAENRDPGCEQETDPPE
# How the values were obtained:
# [1] = biological target: T1, human NMUR1; assay: cell-based or functional assay
# [2] = biological target: T5, human NMUR2 (human, UniProt Q9GZQ4 1-415); assay: cell-based or functional assay
# [3] = biological target: T1, human NMUR1; assay: 125I-hNMU-25 displacement, HEK cell membranes
# Procedure: (§1) Confluent cell monolayers expressing NMU receptors (the HEK cells described above) were harvested with phosphate buffered saline, collected by centrifugation, and resuspended in membrane buffer (50 mM TrisCl pH 7.4, 5 mM MgCl₂, 1× Protease Inhibitor Cocktail, 10 μM phosphoramidon). After the cell pellet was homogenized, the solution was centrifuged at 18,000 rpm for 20 minutes at 4° C. The pellet was resuspended in membrane buffer to yield a final concentration of 0.5-5 μg/μL of membrane and stored at −80° C.
# (§2) Experiments were performed in assay buffer (25 mM TrisCl, pH 7.4, 10 mM MgCl₂, 2mM EDTA, 1× Protease Inhibitor Cocktail, 100 μg/mL Bacitricin, 10 μM phosphoramidon) in 200 μL volumes in a 96-well format using 2-5 μg of membrane and […] ¹²⁵I-hNMU-25 (about 12,000 cpm/well). For non-specific binding, 1 μM hNMU-25 was added. About 5 μL of peptides were added to measure antagonist activity, and the entire reaction was incubated at room temperature with shaking for 80 minutes. The reaction was terminated by rapid filtration through 0.3% poly-ethylenimine presoaked Millipore 96-well filter plates and washed with ice-cold buffer (5 mM TrisCl pH 7.4, 10 mM MgCl₂, 2.5 mM EDTA, 0.04% Triton X-100). Plates were air-dried overnight at room temperature and recovered radioactivity was determined by standard scintillation counting. IC₅₀ values were determined using GraphPad Prism software.
# (§3) Concentration-response curves and radioligand-binding data were fitted using Prism (GraphPad Software). Results are summarized below in Tables 8 and 9.
# [4] = biological target: T5, human NMUR2; assay: 125I-hNMU-25 displacement, HEK cell membranes
# Procedure: as §1, §2, §3
# [5] = biological target: T1, human NMUR1; assay: cell-based or functional assay; remark: listed apart in the source
# [6] = biological target: T5, human NMUR2; assay: cell-based or functional assay; remark: listed apart in the source
# [7] = biological target: T1, human NMUR1; assay: cell-based or functional assay; remark: listed apart in the source
# [8] = biological target: T5, human NMUR2; assay: cell-based or functional assay; remark: listed apart in the source
# [9] = biological target: T2, mouse NMUR1-ATG; assay: cell-based or functional assay
# [10] = biological target: T3, mouse NMUR1-CTG; assay: cell-based or functional assay
# [11] = biological target: mouse NMUR2 (mouse, UniProt Q8BZ39 1-395); assay: cell-based or functional assay
# [12] = biological target: T4, rat NMUR1-ATG; assay: cell-based or functional assay
# [13] = biological target: rat NMUR2 (rat, UniProt Q9ESQ4 1-395); assay: cell-based or functional assay
# Sequence of rat NMUR2 (Q9ESQ4 whole entry): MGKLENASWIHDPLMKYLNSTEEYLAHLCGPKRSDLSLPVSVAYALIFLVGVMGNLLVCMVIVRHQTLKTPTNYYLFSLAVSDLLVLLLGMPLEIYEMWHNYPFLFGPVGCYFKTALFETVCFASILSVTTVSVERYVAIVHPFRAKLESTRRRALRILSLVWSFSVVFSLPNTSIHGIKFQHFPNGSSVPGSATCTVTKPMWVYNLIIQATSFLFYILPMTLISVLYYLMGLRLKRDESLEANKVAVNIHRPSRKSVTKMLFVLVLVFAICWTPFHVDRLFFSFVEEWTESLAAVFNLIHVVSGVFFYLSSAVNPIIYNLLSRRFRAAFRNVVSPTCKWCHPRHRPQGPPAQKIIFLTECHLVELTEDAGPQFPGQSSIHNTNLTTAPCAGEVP
# T5 sequence (Q9GZQ4 whole entry): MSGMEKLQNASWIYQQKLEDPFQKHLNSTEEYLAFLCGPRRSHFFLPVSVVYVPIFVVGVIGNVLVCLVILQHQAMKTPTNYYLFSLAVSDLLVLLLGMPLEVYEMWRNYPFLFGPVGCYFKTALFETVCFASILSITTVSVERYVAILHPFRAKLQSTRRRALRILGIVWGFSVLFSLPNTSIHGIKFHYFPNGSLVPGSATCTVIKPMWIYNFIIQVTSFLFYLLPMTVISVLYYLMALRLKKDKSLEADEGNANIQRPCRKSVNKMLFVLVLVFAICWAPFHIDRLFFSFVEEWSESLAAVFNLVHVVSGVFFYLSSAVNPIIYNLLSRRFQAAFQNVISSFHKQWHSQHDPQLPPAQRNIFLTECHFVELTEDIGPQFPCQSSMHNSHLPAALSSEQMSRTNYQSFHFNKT
# Sequence of mouse NMUR2 (Q8BZ39 whole entry): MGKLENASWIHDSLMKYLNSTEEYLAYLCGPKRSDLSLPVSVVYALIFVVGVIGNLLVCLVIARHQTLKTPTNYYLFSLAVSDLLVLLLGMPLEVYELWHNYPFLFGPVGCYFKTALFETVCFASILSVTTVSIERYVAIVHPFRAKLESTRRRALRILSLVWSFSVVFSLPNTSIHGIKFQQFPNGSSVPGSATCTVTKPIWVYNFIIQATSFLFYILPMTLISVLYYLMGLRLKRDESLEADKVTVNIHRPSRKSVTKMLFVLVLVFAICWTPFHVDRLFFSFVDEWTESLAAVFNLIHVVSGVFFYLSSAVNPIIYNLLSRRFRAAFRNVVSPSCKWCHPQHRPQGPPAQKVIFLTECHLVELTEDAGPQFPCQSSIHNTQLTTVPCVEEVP
binder,measurement,setting,value
FRVDEEFQSPFASQSRGYFWRPRN-NH2 [neuromedin U receptor agonist G],% activity,[1],91%
same,"IC50 (nM), functional",[1],8.4 nM
same,% activity,[2],14%
same,"IC50 (nM), functional",[2],> 1000 nM
same,% activity (binding),[3],97%
same,IC50,[3],2.1 nM
same,% activity (binding),[4],33%
same,IC50,[4],31 nM
"Ac-C(Succinimide(1-Et,3-yl))FRVDEEFQSPFASQSRGYFLFRPRN-NH2 [NMU8]",% activity,[5],100%
same,EC50,[5],1.36 nM
same,% activity,[6],104%
same,EC50,[6],2.9 nM
same,% Activity (FLIPR),[7],99.1%
same,EC50 (FLIPR),[7],10.7 nM
same,% Activity (FLIPR),[8],100%
same,EC50 (FLIPR),[8],5.2 nM
same,% Activity (FLIPR),[9],100%
same,EC50 (FLIPR),[9],6.4 nM
same,% Activity (FLIPR),[10],100%
same,EC50 (FLIPR),[10],15.5 nM
same,% Activity (FLIPR),[11],100%
same,EC50 (FLIPR),[11],1.8 nM
same,% Activity (FLIPR),[12],97.2%
same,EC50 (FLIPR),[12],36.7 nM
same,% Activity (FLIPR),[13],94.7%
same,EC50 (FLIPR),[13],45.1 nM
same,% activity (binding),[3],100%
same,IC50,[3],2.4 nM
same,% activity (binding),[4],100%
same,IC50,[4],0.3 nM
